Test results published in the DeepSol protein solubility set.

Experiment: soluble on expression in E. coli; label from the status in PepcDB or PDB records

Soluble on expression in E. coli, not soluble:
MGSDKIHHHHHHMGNVIVVTSGKGGVGKTTITANLGCALAKLGEKVCLIDADIGLKNLDIVLGLENRIVYTMIDVVNGKVSPQEALVKHKMLKNLYLLPASQIATKEMISPNDMKAIVKELIPHFDYIIIDSPAGIERGFRNAVAPAERVLVVTTPELPAISDADRVIGLLENFGFSDEKINVIINRFKPHMVKKGEMLTTDDIKHTLSLEIIAVIPDSEDIIVASNTGIPVSLNGNSRISKNFENLARRIRGEGVPLENDFVTVSKGLIDTLKDFFSKLKRG, MAHHHHHHMTAQILLYTDCIPQVFSPLKGEREGLLDSQQFANITTNCNTAFACGDPSLNTRISPYMRLSYFHNVTRIRNRKAHISHDIAGDCYVHYKTTCGGIILRPNVRLRPRGRSHRNRVSPRNVIFAAIFLNHRRNGLNRHIDRLNQILQKIIGNIAQTRYG, MNYELMEPAKQARFCVIWLHGLGADGHDFVDIVNYFDVSLDEIRFIFPHADIIPVTINMGMQMRAWYDIKSLDANSLNRVVDVEGINSSIAKVNKLIDSQVNQGIASENIILAGFSQGGIIATYTAITSQRKLGGIMALSTYLPAWDNFKGKITSINKGLPILVCHGTDDQVLPEVLGHDLSDKLKVSGFANEYKHYVGMQHSVCMEEIKDISNFIAKTFKI, RPDKVKLALDKTSYRAGDTLKVTITPPHPGKGLLLVESDKPLYVQAIDANPSTTLEIPVTADWERHDVYVTALVFRGGSASNNTTPARAVGEAYVPMQRKERRVAVGLVVPKQVRPAQSLPVTVSVPELAGKQAHVTISAVDAGILNITGF, MGSDKIHHHHHHMIHLSNITKQHGAQVLFRDASFQILPGTRTGLVGPNGAGKTTIFRIITGEEEVDAGEMTCAKKTTVGYFSQDVGEMAGRSALEEVMAGSAETVRLAAELKEMEAAMCEPQSDDEMAALLERYGAAQEEFEHRGGYDLDTRAQTVLTGLGIGPDRFHHPVESFSGGWKMRIALAKILTLKPDVLLLDEPTNHLDVESIIWLEEWLANDFDGALLMTSHDRDFMNRIVTRIIEVANRTVTTYGGNYDFYERERDIRREQLLASHKRQQEMLAKEEEFIARFAARASHAAQVQSRVKKLEKIERIEIPAEERMVRFEFSEPPRSGEDVVVMENLGKVWQTPDGGEKPVFGGVSGIIRRLNKIAVVGVNGAGKSTFLKVLAGQTEPTTGTVTIGANVELGYFSQHAMEVLDPKKTVFETVQEAMPLANIGVIRNLLAAFLFQGDTVDKRVENLSGGEKSRVVLATLLARPVNFLVLDEPTNHLDIRSREILLDALRNFAGTVVIVSHDRHFLRSLVDRVFEVDHGEMRVYEGDYSYYLRKSHELHGLP, MFVPLAMLAGMFSYYETFHETEALQDDLLRQAALYVAPDSKPETLPEGDGDTRIFVQMPQQEDPVVSLPAHLADGLHTLQADGDDDYYRVYIRTTEQGRIAVMQENEYREDLAADAARQSVLPLLAALPLMILLTVWITHKAMRPVRKLSQSLEQRRINDLSALSVDNIPSEIRGFVTAINLLLKRADEDIRHRQRFVADAAHELRTPMTALSLQAERLNNMSLPPDAARQPAVLQQSIRRNKHLLEQLLALARSQSDETPLTKTTFGLQSRFRQVLQELMPLALEKRQDIGVAVGGDVEVSADETEIYTLIKTFADNAVRYTPPEGRIDLGFTDEGKYLAVWVEDNGNGIPESERARVLDPFYRILGTEQQGTGLGLSIADTLAKKYGGHLELTDSRRFGHGLLIRALLDKETLK, MSATAKAPYSKTFIRSCILYEVLQKKPVFEAYQKICRSLKERISYQEFDYWFYKFYNGNHDLEDEISDEQSLVNPLLDMSNNLSEKEWCRSFVQFFHGLPPRPNKKPAFSLQSMPRKVWQELCSKLEPCDRLVAKKVTRRFRQTIDEQDNLFNTLGICFEDDKTRIFFNEKTFHYTSVGNECRITLDLFTKEDAIKIKDILTRSDNFKYANFESGNFDPIEIANVFIPNYQSNHWPIINYMRHNKKFLLKITPMTFQIKKID, MLVTTTERISGQEYEIIGEVFGLTTRSKNMFKDLGAGLKSVVGGEIKGYTDMQREARDQAIERLKAEASKLGADAVVMMRFDSGTIGTDMQSVVAYGTAVKYILEHHHHHH, MKTNYHTHTTRCMHAVGDDEDYVRSAIKGGFQELGFSDHGPWKYHTDFVSDIRMLPEDLPEYIESIRALKEKYRNQISIKIGLEYEYFPEYIHWLKEIIKEYRLDYILFGNHHYHTDEKFPYFGHHTTNRDMLDLYEESTIEGMESGLFAYLAHPDLFMRSYPEFDKHCISVSRHICRAAARLHIPLEYNIGYVAINEARGITTYPCPQFWHIAANEGCTAIIGLDAHNNLDLENPTYYDRACQELNALKMPVIDTIPFLKY, MVQNDETQYIARILDGDTECFSAFLDRYSRPLYVLIVQIVGCSEDAEELVQDVFLKAFRCLGSYRGECRFSTWLYRIAYTTAVSATRKKKQEFLYIEENTINNVPDEKADDILYPTDDEERTARLIQAIDLLNVEEKALITLFYYEEKSIEEIGEVLKLSPGNVKVKLHRTRKKIYVLMNGKE, MVTEKTLRTCEQGHEYYKSSDCPTCPVCEKERKPKESFLSLLSAPARRALEHRGIQTVEELSKYSEKEILKLHGMGPASLPKLKKVLEESWLSFK, MVLTGVTSKAIRKGDAEPPLSKGSFRVYNMRFCPWAERAMLYVAAKGIEAEVVNLNVTDKLEWYWTKHYQGKAPAVEHNGKVVIESGFIPEYLDDAFPETRILPTDPYEKVQQKLLADRLTAVAHAVPLLFAVMRDRTLKDEKQRKVFEVLKQAENLLANDFYAGSQPGYPDYLSFPFFEKIWWSASLDGVVDLPTIEFPGEEEYPKLTKWFQKMISSDVVQSVTQSLEHGAAFMNAYATHQELNYDLGL, MAHHHHHHMNKFENFYKVPISYKNRKNEIYKYDNLEYNKMKYGMPEYYRCPYYMHENRNLYNTESCYTPNINVGRNSFYGKTLDPNDKICEENDSVYNILEEDHKEESFKKIECMNKEDDRKKIYNKVEKNDDENIDNKKHNYCEKYEEVYPKDRSSIKIIYNDVDQQIDHNLYDDENEIVCDNEIKKRKKRDRKVFMGKYFFSDIINTIIYPCTNKSLQKYQYGSVENMDYSLYNDIQKGQKIQKVDKIKNKKAPQIIVKF

Soluble on expression in E. coli, soluble:
HSQITLRGNAINTVGELPAVGSPAPAFTLTGGDLGVISSDQFRGKSVLLNIFPSVDTPVSATSVRTFDERAAASGATVLCVSKDLPFAQKRFCGAEGTENVMPASAFRDSFGEDYGVTIADGPMAGLLARAIVVIGADGNVAYTELVPEIAQEPNYEAALAALGA, MSLACGEFSLIARYFDRVRSSRLDVELGIGDDCALLNIPEKQTLAISTDTLVAGNHFLPDIDPADLAYKALAVNLSDLAAMGADPAWLTLALTLPDVDEAWLESFSDSLFDLLNYYDMQLIGGDTTRGPLSMTLGIHGFVPMGRALTRSGAKPGDWIYVTGTPGDSAAGLAILQNRLQVADAKDADYLIKRHLRPSPRILQGQALRDLANSAIDLSDGLISDLGHIVKASDCGARIDLALLPFSDALSRHVEPEQALRWALSGGEDYELCFTVPELNRGALDVALGHLGVPFTCIGQMTADIEGLCFIRDGEPVTLDWKGYDHFATPEGGSHHHHHH, MNVPSTSSTRGYAKYQIRSSGMPRVLANESDVFTLDDVDVDEETDELKPNRITITKEEEKSRLVECNLDSDEEEDKTPPKEDDKGQNIRLSSKNSSTVESKERCRLRDSFDLDNDDSLSDDLDLLPPIPGAPNANSSLCSKLHRFNCCNPRIPSKCTIM, MSLSSEPVVVAILPHAAELAEKIAAKIGGRVDLRGSDFTDTGAHLRSLFLAGHPIVGIGAAGIYIRSLASVLGDKNSEPPVLAVSEDARNIVPLLGGHHGANGLAKEIADYLETAAAVTTSGDVAMGVALDEPPQGWKLENPEDAKGAMAALLGGAKAQQSGNGDWLTPLSSRVEFSETDADAPVVLSVEGAAPLIYRRQSFALGLGCARGCDPDELIALVAKTLADNGRSIHEVAMVGSIDIKSDEAAIHAVARHLGVPARFFDADELNSVTPRLANPSEVVRAEVGVAGVSEGAALVMAGVSGALVIEKTKTANATCALARISQDGSEGHHHHHH, MKLQKQLLEAVEHKQLRPLDVQFALTVAGDEHPAVTLAAALLSHDAGEGHVCLPLSRLENNEASHPLLATCVSEIGELQNWEECLLASQAVSRGDEPTPMILCGDRLYLNRMWCNERTVARFFNEVNHAIEVDEALLAQTLDKLFPVSDEINWQKVAAAVALTRRISVISGGPGTGKTTTVAKLLAALIQMADGERCRIRLAAPTGKAAARLTESLGKALRQLPLTDEQKKRIPEDASTLHRLLGAQPGSQRLRHHAGNPLHLDVLVVDEASMIDLPMMSRLIDALPDHARVIFLGDRDQLASVEAGAVLGDICAYANAGFTAERARQLSRLTGTHVPAGTGTEAASLRDSLCLLQKSYRFGSDSGIGQLAAAINRGDKTAVKTVFQQDFTDIEKRLLQSGEDYIAMLEEALAGYGRYLDLLQARAEPDLIIQAFNEYQLLCALREGPFGVAGLNERIEQFMQQKRKIHRHPHSRWYEGRPVMIARNDSALGLFNGDIGIALDRGQGTRVWFAMPDGNIKSVQPSRLPEHETTWAMTVHKSQGSEFDHAALILPSQRTPVVTRELVYTAVTRARRRLSLYADERILSAAIATRTERRSGLAALFSSRE, MSLNTISGTHFNYHQVCRRKLWLFSAGITMEHTSDLVYEGKLIHETTYQQRPERYQELELDGIKIDFYDAKNRVVHEVKKSNKISPAHRLQLLYYLYVLERNGVLGATGILEYPTLRKKEEVILSDIDRERIREIEQEILQIISHEDCPPVIDSGICKNCSYYEFCFSGEEQEGHHHHHH, MSQSASQDLSDFLGDDRFATVMADPPWRFTNRTGKVAPEHKRLARYPTMTLEDICALPVADYLQDRAHCYLWVPNALLPEGLQVLSAWGFEYKSNIVWHKVRKDGGSDGRGVGFYFRNVTELLLFGTKGKNARTLAPGRRQVNMMQTRKREHSRKPDEQYELIESCSWGPYLEMFGRGVRDGWTVWGNQADADYKPSWKTYSYNSGVAAELEHHHHHH, GPHMADLLLNSTQFVQAFTYLIQNDKEFANKLHKAYLNGCSNLLLD, GSHMNPLASLTTDKNDLYINWLKSLSFFQTNSSCAEALVKVIPHYHNKLIDFSQVLQLVFSASEKFPIQENQPLPEQLMFLSNLEKQTPFAKAVGSSIYKLVTGKNLSLDFASQILKEASILEH, MVMVLDSLGRALSNALKKIARAGSVDEALVKEVVRDIQRALLQADVNVRLVLKLTKEIQRRALEEKPPAGISKKEHIIKIVYEELTKFLGTEAKPIEIKEKPTVLLTVGVQGSGKTTTVAKLARYFQKRGYKVGVVCSDTWRPGAYHQLKQLLDPYHIEVFGDPNEKDAVKLAKEGVEYFKTRDVDLIIVDTAGRHKEEKDLIEEMRMISEEIRPHEVILVIDGTIGQQAYNQALAFKEATPIGSIIVTKLDSSAKGGGALSAVAATGAPIKFIGVGEKIDDLEPFDPARFVSRLLGLGDIQGLLEKFKELEKEVEFTEEDIDRFLRGKFTLKDMYAQLEAMRKMGPLKQILRMIPGLGYSLPDELISVGEERLRKFKVIMDSMTEEELMNPEIINYSRIKRIARGSGTSIKDVKELLTQYNQMKKFFKSMNKRQLSRLARRFGM, MSLKIVLIAPYRDLLETAITVKKDLNVDIELELGDLSEGVKVAREWEKKGVDIIISRGGTYQLIKESVSVPVVEIKVSAFDILRQFNGLIGCKEIIGVAGYKNVIYGCEVIGEILDLNLIKVVIEKEEEGLRQVAAAKEKGVSLIIGDTIGAYSAKRLGLKSRLITSGKEAVAAAVSESFRLAQALKAEKEKAEQIRTIVDFVHDGIIAIDKEGRVSIYNRMAEKIFKRPPAEAVGRKVETVVPNTRLYEVIETGKPQIGELQEVLGTMITTNRVPIVVGNEVVGAVATFQDVTMLQKVEQKIRRQLADRGLVAMYTFDEGHHHHHH
